Experimental data taken from patent publication US20180185450A1 (Sanofi, published 2018).
Numbered stars: 1 amine (or outer) side, 2 acyl side, 3 side chain; on linkers, the order of the positions; unused ones are H or OH. Square brackets hold non-standard residues; d marks the D form. Side chains are listed from the residue outwards. Ends that are not written are not given here. γGlu = O=C(O)[C@H](CCC(=O)[*:2])N[*:1]; X70 = not defined here; x53 = not defined here; x70 = not defined here; x76 = not defined here; Aib = CC(C)(N)C(=O)O

Assays:
human glucagon receptor = human glucagon receptor (human, UniProt P47871 26-477); test: cell-based or functional assay
Chain of human glucagon receptor (P47871 26-477): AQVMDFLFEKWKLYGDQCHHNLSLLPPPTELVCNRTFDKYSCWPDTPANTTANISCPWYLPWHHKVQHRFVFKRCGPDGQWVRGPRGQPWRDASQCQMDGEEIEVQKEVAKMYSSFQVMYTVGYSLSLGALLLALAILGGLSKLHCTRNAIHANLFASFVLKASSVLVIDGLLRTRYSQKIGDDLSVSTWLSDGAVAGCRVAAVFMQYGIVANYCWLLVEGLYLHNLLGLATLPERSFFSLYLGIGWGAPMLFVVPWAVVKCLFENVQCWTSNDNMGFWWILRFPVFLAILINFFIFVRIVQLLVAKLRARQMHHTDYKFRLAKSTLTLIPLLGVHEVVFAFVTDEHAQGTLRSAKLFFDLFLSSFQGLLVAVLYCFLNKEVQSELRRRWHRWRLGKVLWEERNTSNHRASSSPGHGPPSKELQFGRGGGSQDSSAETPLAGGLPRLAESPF

human GLP-1 receptor = human GLP-1 receptor (human, UniProt P43220 24-463); test: cell-based or functional assay

Binder	EC50 hGlucagon-R (cAMP) (human glucagon receptor) [pM]	EC50 hGLP-1R (cAMP) (human GLP-1 receptor) [pM]
H[Aib]QGTFTSDLSKQK([γGlu-x70])DSRRAQLFIEWLKAGGPSSGAPPPS-NH2 (reading uncertain) [SEQ ID NO: 198]	2.4	8.2
H[Aib]QGTFTSDLSKQK([γGlu-X70])DEQRAKEFIEWLKSGGPSSGAPPPS-NH2 (reading uncertain) [SEQ ID NO: 174]	1.9	2.6
HXQGTFTSDLSKQKESXAAQLFIEWLKAGGPSSGAPPPS (dSer at 2; K(γE-x53) at 14; Aib at 17; C-terminal NH2) [SEQ ID NO: 15]	176	6.6
HXQGTFTSDLSKQKESRRAQLFIEWLKAXGPSSGAPPPS (Aib at 2; K(γE-x70) at 14; dAla at 29; C-terminal NH2) [SEQ ID NO: 205]	5.2	12.3
HXQGTFTSDLSKQKDKRAAQLFIEWLKAXGPSSGAPPPS (Aib at 2; K(γE-x76) at 14; dAla at 29; C-terminal NH2) [SEQ ID NO: 212]	6.6	14.1
HXQGTFTSDLSKQKEEEAAKDFIEWLKAGGPSSGAPPPS (dSer at 2; K(γE-x53) at 14; C-terminal NH2) [SEQ ID NO: 17]	93.1	1.7
HXQGTFTSDLSKQKEEEAAQDFIEWLKAGGPSSGAPPPS (dSer at 2; K(γE-x53) at 14; C-terminal NH2) [SEQ ID NO: 16]	117	2.8
HXQGTFTSDLSKQKDSKAAQDFIEWLKSGGPSSGAPPPS (dSer at 2; K(γE-x53) at 14; C-terminal NH2) [SEQ ID NO: 173]	5.9	5.7
HXQGTFTSDLSKQKESRAAQLFIEWLKAXGPSSGAPPPS (Aib at 2; K(γE-x76) at 14; dAla at 29; C-terminal NH2) [SEQ ID NO: 204]	12.5	34.1
HXQGTFTSDLSKQKDKRAAQLFIEWLKAXGPSSGAPPPS (Aib at 2; K(γE-x70) at 14; dAla at 29; C-terminal NH2) [SEQ ID NO: 211]	26.4	15.5
H[Aib]QGTFTSDLSKQK([γGlu-X70])DEQRAKDFIEWLKSGGPSSGAPPPS-NH2 (reading uncertain) [SEQ ID NO: 175]	3.1	2.5
H[Aib]QGTFTSDLSKQK([γGlu-x76])ESRAAQDFIEWLKAGGPSSGAPPPS-NH2 (reading uncertain) [SEQ ID NO: 202]	6.9	26.2
H[Aib]QGTFTSDLSKQK([γGlu-X70])DSRRAQDFIEWLKAGGPSSGAPPPS-NH2 (reading uncertain) [SEQ ID NO: 162]	2.4	3.1
H[Aib]QGTFTSDLSKQK([γGlu-x53])DSQAAQDFIEWLKAGGPSSGAPPPS-NH2 (reading uncertain) [SEQ ID NO: 155]	25.1	2.5
H[Aib]QGTFTSDLSKQK([γGlu-X70])DEQRAKEFIEWLKAGGPSSGAPPPS-NH2 (reading uncertain) [SEQ ID NO: 152]	2.3	3.2
H[Aib]QGTFTSDLSKQK([γGlu-x76])ESRAAQLFIEWLKAGGPSSGAPPPS-NH2 (reading uncertain) [SEQ ID NO: 203]	13.1	34.9
H[Aib]QGTFTSDLSKQK([γGlu-x70])DEQKAKLFIEWLKSGGPSSGAPPPS-NH2 (reading uncertain) [SEQ ID NO: 206]	12.5	3.2
HSHGTFTSDLSKQK([γGlu-x53])ESRRAQDFIEWLKAGGPSSGAPPPS-NH2 (reading uncertain) [SEQ ID NO: 208]	1.3	2
HXQGTFTSDLSKQKDEQAAKLFIEWLKAXGPSSGAPPPS (Aib at 2; K(γE-x76) at 14; dAla at 29; C-terminal NH2) [SEQ ID NO: 201]	29.6	22.7
H[Aib]QGTFTSDLSKQK([γGlu-X70])DSQAAQDFIEWLKAGGPSSGAPPPS-NH2 (reading uncertain) [SEQ ID NO: 156]	12.5	2.9
HXQGTFTSDLSKQKDSRRAQDFIEWLKAXGPSSGAPPPS (dSer at 2; K(γE-X70) at 14; dAla at 29; C-terminal NH2) [SEQ ID NO: 161]	2.4	5
HXQGTFTSDLSKQKDEQRAKLFIEWLKAXGPSSGAPPPS (Aib at 2; K(γE-x70) at 14; dAla at 29; C-terminal NH2) [SEQ ID NO: 200]	4.4	4.6
HXQGTFTSDLSKQKDKRRAQLFIEWLKAXGPSSGAPPPS (Aib at 2; K(γE-x70) at 14; dAla at 29; C-terminal NH2) [SEQ ID NO: 210]	3	6.7
HXQGTFTSDLSKQKDKRRAQDFIEWLKAXGPSSGAPPPS (Aib at 2; K(γE-x70) at 14; dAla at 29; C-terminal NH2) [SEQ ID NO: 209]	1.9	5.4
HXQGTFTSDLSKQKDEQRAKDFIEWLKAXGPSSGAPPPS (Aib at 2; K(γE-x70) at 14; dAla at 29; C-terminal NH2) [SEQ ID NO: 199]	7.2	10.1
HXQGTFTSDLSKQKDSKRAXDFIEWLKAGGPSSGAPPPS (dSer at 2; K(γE-x70) at 14; Aib at 20; C-terminal NH2) [SEQ ID NO: 196]	1.8	7.8
H[Aib]QGTFTSDLSKQK([γGlu-x70])DEEAAKLFIEWLKAGGPSSGAPPPS-NH2 (reading uncertain) [SEQ ID NO: 213]	59.1	2.7
H[Aib]QGTFTSDLSKQK([γGlu-γGlu-x53])DEQRAKEFIEWLKSGGPSSGAPPPS-NH2 (reading uncertain) [SEQ ID NO: 207]	1.2	1.1
